Article PMC3234751

Biological target: GFP-tagged IQGAP1 lacking IQ domains (IQGAPΔIQ) (UniProt P46940)
Test: co-IP

UniProt P46940, sequence (P46940 whole entry, stated change not applied, the tested form may be a part): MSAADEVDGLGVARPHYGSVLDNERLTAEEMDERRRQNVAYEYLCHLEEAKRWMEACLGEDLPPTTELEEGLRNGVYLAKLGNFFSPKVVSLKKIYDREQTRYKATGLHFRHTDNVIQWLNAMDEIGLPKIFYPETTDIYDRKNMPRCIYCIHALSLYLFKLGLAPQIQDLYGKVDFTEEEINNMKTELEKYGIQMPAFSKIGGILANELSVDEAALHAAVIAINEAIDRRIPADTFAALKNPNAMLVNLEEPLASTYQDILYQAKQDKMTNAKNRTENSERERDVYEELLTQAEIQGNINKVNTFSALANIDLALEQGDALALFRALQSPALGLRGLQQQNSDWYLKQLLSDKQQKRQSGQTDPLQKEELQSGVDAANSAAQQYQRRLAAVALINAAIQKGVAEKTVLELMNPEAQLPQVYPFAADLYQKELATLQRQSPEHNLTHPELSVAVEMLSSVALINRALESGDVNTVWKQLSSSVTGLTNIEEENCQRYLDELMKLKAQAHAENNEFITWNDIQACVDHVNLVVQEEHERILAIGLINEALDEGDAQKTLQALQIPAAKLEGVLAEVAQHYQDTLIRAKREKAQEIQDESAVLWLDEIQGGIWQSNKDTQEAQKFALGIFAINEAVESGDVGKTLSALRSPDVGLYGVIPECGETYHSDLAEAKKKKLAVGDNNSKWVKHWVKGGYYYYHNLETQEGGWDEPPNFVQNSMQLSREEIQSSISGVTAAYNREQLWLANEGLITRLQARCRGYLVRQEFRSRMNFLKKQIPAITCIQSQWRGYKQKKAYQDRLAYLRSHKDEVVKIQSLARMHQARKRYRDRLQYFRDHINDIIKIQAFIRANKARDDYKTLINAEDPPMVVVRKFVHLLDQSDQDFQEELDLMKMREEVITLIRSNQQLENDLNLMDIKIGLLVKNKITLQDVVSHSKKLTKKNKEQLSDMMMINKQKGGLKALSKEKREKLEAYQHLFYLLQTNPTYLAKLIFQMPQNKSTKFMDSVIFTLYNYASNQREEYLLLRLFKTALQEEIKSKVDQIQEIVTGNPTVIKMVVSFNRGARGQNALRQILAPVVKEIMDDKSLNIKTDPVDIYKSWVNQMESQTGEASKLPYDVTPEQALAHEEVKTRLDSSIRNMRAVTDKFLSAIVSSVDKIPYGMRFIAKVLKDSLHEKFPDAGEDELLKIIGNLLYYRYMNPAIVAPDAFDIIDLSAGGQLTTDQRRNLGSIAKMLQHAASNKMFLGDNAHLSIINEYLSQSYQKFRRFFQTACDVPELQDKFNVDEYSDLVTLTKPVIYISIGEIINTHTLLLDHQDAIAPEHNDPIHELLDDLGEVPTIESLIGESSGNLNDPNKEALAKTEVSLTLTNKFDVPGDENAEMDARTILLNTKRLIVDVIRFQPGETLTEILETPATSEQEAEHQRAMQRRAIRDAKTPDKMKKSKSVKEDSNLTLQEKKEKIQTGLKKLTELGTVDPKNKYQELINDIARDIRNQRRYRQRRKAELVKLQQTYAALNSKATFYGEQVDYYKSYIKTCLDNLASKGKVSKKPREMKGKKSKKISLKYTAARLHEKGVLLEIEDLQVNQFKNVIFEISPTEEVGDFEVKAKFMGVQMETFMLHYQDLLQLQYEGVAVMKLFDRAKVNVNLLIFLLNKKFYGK

- fold enhancement in binding (densitometry): 3.6 fold
Substance: AKAP220, endogenous in COS cells (natural protein)
